Results reported in US20210340207A1 (Merck Sharp & Dohme, published 2021).
Positions count from the first letter of the chain named. Numbers in names are those of the source. Values belong to the binder of their own block, whether it stands above or below them. *1 amine or outer side, *2 acyl side, *3 side chain or, on linkers, in order; H or OH if unused. [ ]: non-standard residue; d: D form. pAMF = para-azidomethylphenylalanine, [N-]=[N+]=NCc1ccc(C[C@H](N[*:1])C(=O)[*:2])cc1

Assays:
[1] = molecular target: T1, human IL-2Rαβγc (on Kit225-STAT5 reporter cells, NK-92 cells, primary Treg cells) (human, UniProt P01589 22-272; P14784 27-551; P31785 23-369); test: cell-based or functional assay
T1 sequence (looked up) 1: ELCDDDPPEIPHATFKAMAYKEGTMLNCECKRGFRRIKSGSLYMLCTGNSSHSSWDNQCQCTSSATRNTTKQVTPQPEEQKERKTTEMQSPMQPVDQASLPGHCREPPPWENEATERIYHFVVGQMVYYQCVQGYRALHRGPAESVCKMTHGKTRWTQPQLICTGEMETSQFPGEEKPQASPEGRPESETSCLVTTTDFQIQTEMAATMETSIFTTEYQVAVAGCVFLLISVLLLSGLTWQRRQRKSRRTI
T1 sequence (looked up) 2: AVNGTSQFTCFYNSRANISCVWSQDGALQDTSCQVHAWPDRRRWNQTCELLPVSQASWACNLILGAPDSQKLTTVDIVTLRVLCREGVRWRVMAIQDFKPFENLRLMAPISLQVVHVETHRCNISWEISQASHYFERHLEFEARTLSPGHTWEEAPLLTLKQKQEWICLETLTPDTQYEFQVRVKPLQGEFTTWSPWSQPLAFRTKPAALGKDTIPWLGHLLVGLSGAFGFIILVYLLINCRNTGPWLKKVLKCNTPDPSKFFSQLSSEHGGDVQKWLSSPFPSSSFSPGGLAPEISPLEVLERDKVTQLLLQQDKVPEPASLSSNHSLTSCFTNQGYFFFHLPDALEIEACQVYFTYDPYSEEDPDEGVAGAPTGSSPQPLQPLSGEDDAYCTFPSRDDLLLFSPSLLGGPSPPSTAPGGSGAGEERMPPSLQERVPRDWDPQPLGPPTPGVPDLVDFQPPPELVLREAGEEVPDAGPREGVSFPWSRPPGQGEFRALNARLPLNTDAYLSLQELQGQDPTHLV
T1 sequence (looked up) 3: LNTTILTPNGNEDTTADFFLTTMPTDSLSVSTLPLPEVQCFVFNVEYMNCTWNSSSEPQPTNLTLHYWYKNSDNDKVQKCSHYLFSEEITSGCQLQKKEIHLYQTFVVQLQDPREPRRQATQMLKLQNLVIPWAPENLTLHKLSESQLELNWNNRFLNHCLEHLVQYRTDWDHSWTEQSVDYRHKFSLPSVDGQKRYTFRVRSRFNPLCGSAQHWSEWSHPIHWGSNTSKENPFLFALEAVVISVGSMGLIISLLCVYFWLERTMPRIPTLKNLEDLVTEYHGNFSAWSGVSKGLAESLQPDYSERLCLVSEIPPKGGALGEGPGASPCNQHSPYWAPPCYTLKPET

Biotin-IL-2Rβ-His = molecular target: T2, Biotin-IL-2Rβ-His (UniProt P14784 27-239, limits assumed, biotin-labeled (site not stated)); test: SPR (Biacore T200)
T2 construct: also called biotin-labeled IL-2Rβ; not shown: His tag
T2 sequence (looked up): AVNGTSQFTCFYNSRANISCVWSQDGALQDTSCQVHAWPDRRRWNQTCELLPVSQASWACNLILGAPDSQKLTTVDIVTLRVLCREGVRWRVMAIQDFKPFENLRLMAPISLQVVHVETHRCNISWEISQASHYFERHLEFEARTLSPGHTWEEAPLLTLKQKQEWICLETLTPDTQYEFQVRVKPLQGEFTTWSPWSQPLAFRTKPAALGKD

Biotin-IL-2Rα-His = molecular target: T3, Biotin-IL-2Rα-His (UniProt P01589 22-213, limits assumed, biotin-labeled (site not stated)); test: SPR (Biacore T200)
T3 construct: also called biotin-labeled IL-2Rα; not shown: His tag
T3 sequence (looked up): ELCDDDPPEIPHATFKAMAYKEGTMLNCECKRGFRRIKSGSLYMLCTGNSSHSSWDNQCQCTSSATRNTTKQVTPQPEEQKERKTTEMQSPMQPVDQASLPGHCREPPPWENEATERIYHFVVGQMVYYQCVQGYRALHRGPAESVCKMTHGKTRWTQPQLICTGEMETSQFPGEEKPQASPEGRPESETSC

[2] = molecular target: T4, human IL-2Rβγc (on DERL-7 cells, U2OS IL2RB/IL2RG cells, CD25 knockout Kit225-STAT5 cells, primary CD8+ CTLs) (human, UniProt P14784 27-551; P31785 23-369); test: cell-based or functional assay
T4 sequence (looked up) 1: T1 sequence (looked up) 2
T4 sequence (looked up) 2: T1 sequence (looked up) 3

[3] = molecular target: T5, mouse IL-2Rαβγc (on CTLL2-STAT5 reporter cells) (mouse, UniProt P01590 22-268; P16297 27-539; P34902 23-369); test: cell-based or functional assay
T5 sequence (looked up) 1: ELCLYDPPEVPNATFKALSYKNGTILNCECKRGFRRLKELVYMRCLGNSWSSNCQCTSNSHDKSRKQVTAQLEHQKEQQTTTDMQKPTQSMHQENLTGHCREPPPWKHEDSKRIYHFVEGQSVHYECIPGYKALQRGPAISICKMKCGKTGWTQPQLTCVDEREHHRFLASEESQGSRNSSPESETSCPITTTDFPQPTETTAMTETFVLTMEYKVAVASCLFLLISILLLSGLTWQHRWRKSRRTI
T5 sequence (looked up) 2: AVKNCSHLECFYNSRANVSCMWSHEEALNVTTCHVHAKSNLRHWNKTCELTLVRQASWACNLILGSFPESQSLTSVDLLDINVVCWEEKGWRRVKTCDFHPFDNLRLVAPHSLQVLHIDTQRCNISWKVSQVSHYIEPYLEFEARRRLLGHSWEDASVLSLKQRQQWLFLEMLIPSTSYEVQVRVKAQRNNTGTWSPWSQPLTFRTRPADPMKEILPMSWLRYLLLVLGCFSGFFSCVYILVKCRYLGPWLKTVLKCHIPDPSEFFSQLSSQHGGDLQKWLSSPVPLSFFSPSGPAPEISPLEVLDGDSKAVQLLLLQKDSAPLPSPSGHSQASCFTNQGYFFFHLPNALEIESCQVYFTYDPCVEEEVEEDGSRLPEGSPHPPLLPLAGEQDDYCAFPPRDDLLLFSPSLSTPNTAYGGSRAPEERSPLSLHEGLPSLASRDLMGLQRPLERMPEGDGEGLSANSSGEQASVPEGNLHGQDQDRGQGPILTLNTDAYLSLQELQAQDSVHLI
T5 sequence (looked up) 3: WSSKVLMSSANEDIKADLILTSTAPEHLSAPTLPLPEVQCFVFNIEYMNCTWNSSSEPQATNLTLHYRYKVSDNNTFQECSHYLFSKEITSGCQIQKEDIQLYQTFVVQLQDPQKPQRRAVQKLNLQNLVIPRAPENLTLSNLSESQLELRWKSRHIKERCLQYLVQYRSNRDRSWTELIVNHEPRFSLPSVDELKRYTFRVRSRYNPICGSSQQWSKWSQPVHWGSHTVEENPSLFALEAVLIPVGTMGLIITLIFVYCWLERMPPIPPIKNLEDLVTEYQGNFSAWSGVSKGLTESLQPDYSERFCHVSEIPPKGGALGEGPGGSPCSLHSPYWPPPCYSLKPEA

B1: Ald_S4pAMF/R37A/F41K (MUT1) (ligand)
chain: PTS[pAMF]STKKTQLQLEHLLLDLQMILNGINNYKNPKLTAMLTKKFYMPKKATELKHLQCLEEELKPLEEVLNLAQSKNFHLRPRDLISNINVIVLELKGSETTFMCEYADETATIVEFLNRWITFSQSIISTLT
modifications: ends and bridges not checked
Kit225-STAT5 reporter, fold lower activity than aldesleukin [1]: 190 fold

B2: Ald-6HIS_E60T/E61S (ligand)
chain: PTSSSTKKTQLQLEHLLLDLQMILNGINNYKNPKLTRMLTFKFYMPKKATELKHLQCLETSLKPLEEVLNLAQSKNFHLRPRDLISNINVIVLELKGSETTFMCEYADETATIVEFLNRWITFSQSIISTLTGGSHHHHHH
Kd (Biotin-IL-2Rβ-His): 2000 nM | fold reduction over wt (Biotin-IL-2Rβ-His): 5 fold | Kd (Biotin-IL-2Rα-His): 800 nM | fold reduction over wt (Biotin-IL-2Rα-His): 80 fold | U2OS-IL2Rbg EC50 [2]: 1.95 nM | CTLL2-STAT5 EC50 [3]: 0.525 nM

B6: Ald-6HIS_E61S/Y106A (ligand)
chain: B2 chain with T60E, Y106A
Kd (Biotin-IL-2Rβ-His): 2000 nM | fold reduction over wt (Biotin-IL-2Rβ-His): 5 fold | U2OS-IL2Rbg EC50 [2]: 2.87 nM | CTLL2-STAT5 EC50 [3]: > 7 nM

The remaining lines, values ahead:

Kd (Biotin-IL-2Rβ-His): 1000 nM | fold reduction over wt (Biotin-IL-2Rβ-His): 3 fold | Kd (Biotin-IL-2Rα-His): 2000 nM | fold reduction over wt (Biotin-IL-2Rα-His): 200 fold | U2OS-IL2Rbg EC50 [2]: 1.96 nM | CTLL2-STAT5 EC50 [3]: 1.09 nM
B3: Ald-6HIS_E60T/E61S/P64A (ligand)
chain: B2 chain with P64A

Kd (Biotin-IL-2Rβ-His): 700 nM | fold reduction over wt (Biotin-IL-2Rβ-His): 2 fold | Kd (Biotin-IL-2Rα-His): 60 nM | fold reduction over wt (Biotin-IL-2Rα-His): 6 fold | U2OS-IL2Rbg EC50 [2]: 0.499 nM | CTLL2-STAT5 EC50 [3]: 0.024 nM
B4: Ald-6HIS_E60T/P64A (ligand)
chain: B2 chain with S61E, P64A

Kd (Biotin-IL-2Rβ-His): 500 nM | fold reduction over wt (Biotin-IL-2Rβ-His): 1 fold | Kd (Biotin-IL-2Rα-His): 500 nM | fold reduction over wt (Biotin-IL-2Rα-His): 50 fold | U2OS-IL2Rbg EC50 [2]: 0.634 nM | CTLL2-STAT5 EC50 [3]: 0.213 nM
B5: Ald-6HIS_E61S/P64A (ligand)
chain: B2 chain with T60E, P64A
